Data published in paper PMC4022432, “Complete steady-state rate equation for DNA ligase and its use for measuring product kinetic parameters of NAD^+-dependent DNA ligase from Haemophilus influenzae” (BMC Research Notes, 2014).

Substrate: NC(=O)c1ccc[n+]([C@@H]2O[C@H](COP(=O)(O)OP(=O)(O)OC[C@H]3O[C@@H](n4cnc5c(N)ncnc54)[C@H](O)[C@@H]3O)[C@@H](O)[C@H]2O)c1
Experiment: purified protein
Details: co-substrate nicked DNA 10-80 nM; room temperature; value from NMN study
Text: FRET nick-ligation assay, global nonlinear least-squares fit of NMN product inhibition on NAD^+-dependent DNA ligase from Haemophilus influenzae

B1: NAD^+-dependent DNA ligase from Haemophilus influenzae (Haemophilus influenzae Rd KW20) (protein)
chain: MTNIQTQLDNLRKTLRQYEYEYHVLDNPSVPDSEYDRLFHQLKALELEHPEFLTSDSPTQRVGAKPLSGFSQIRHEIPMLSLDNAFSDAEFNAFVKRIEDRLILLPKPLTFCCEPKLDGLAVSILYVNGELTQAATRGDGTTGEDITANIRTIRNVPLQLLTDNPPARLEVRGEVFMPHAGFERLNKYALEHNEKTFANPRNAAAGSLRQLDPNITSKRPLVLNAYGIGIAEGVDLPTTHYARLQWLKSIGIPVNPEIRLCNGADEVLGFYRDIQNKRSSLGYDIDGTVLKINDIALQNELGFISKAPRWAIAYKFPAQEELTLLNDVEFQVGRTGAITPVAKLEPVFVAGVTVSNATLHNGDEIERLNIAIGDTVVIRRAGDVIPQIIGVLHERRPDNAKPIIFPTNCPVCDSQIIRIEGEAVARCTGGLFCAAQRKEALKHFVSRKAMDIDGVGGKLIEQLVDRELIHTPADLFKLDLTTLTRLERMGAKSAENALNSLENAKSTTLARFIFALGIREVGEATALNLANHFKTLDALKDANLEELQQVPDVGEVVANRIFIFWREAHNVAVVEDLIAQGVHWETVEVKEASENLFKDKTVVLTGTLTQMGRNEAKALLQQLGAKVSGSVSSKTDFVIAGDAAGSKLAKAQELNITVLTEEEFLAQITR
Km: 0.65 ± 0.08 µM
